According to patent publication US7811992B2, “Anti-infarction molecules” (Stasys Technologies, Inc., priority 2002, dated 2010):
Where two headings read alike, the source gives them in different places. Square brackets hold non-standard residues; d marks the D form. Side chains are listed from the residue outwards. Ends that are not written are not given here. Peptide text beside a SMILES is read from it. * marks the point of attachment. Acetyl(1-adamantyl) = O=C(CC12CC3CC(CC(C3)C1)C2)*; Hyp = O=C(O)[C@@H]1C[C@@H](O)CN1; 2Thi = N[C@@H](Cc1cccs1)C(=O)O; Nicotinoyl = O=C(c1cccnc1)*; Cbz = O=C(OCc1ccccc1)*

How the values were obtained:
[1] = target: T1, human angiotensin AT2 receptor (Homo sapiens, UniProt P50052); settings: for Activity/inhibition ATII binding assay: compounds screened at 10 μM, % inhibition of binding at the AT2 receptor; for % Inhibition ATII receptor: screened at 10 μM; for inhibition at 10 µM: read-out: % Inhibition ATII receptor; for nH: reference data, Hill coefficient
T1 sequence (P50052 1-363): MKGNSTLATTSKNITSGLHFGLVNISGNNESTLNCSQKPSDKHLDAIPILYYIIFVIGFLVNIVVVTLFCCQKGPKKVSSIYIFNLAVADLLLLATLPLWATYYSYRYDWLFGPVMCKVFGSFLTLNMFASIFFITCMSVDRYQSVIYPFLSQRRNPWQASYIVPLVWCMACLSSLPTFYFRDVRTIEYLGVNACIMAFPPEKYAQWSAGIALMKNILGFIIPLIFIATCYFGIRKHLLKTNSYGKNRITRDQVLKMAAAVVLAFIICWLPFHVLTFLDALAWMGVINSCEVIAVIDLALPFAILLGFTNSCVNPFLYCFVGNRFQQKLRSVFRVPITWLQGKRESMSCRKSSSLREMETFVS
Description: HeLa cells stably transfected with a plasmid encoding the human angiotensin AT2 receptor were used to prepare membranes in modified Tris HCl pH 7.4 by standard techniques. […] Non-specific binding was estimated in the presence of 10 μM. […] Compounds were screened at 10 μM. The ATII binding studies were performed essentially like that disclosed in Whitebread, S. E. et al., Radioligand CGP42112A: a novel high affinity and high selective ligand for the characterization of angiotensin AT2 receptors.

[2] = tested on: Inositol Triphosphate IP3; experiment: Receptor panel screen, ligand-receptor binding, FPAh 10 μM: Inositol Triphosphate IP3
Source text: (§1) For example, FPA was used in a screen of 150 receptors to determine which receptors FPA could interact with. One way of assessing FPA interactions is to look at the amount that FPA can modulate a given receptor relative to its natural ligand. Disclosed in tables 13 and 14 are ligand-receptor binding studies that are, for example, modulated by more than 20% (inhibition or excitation) by the human form of Fibrinopeptide-A (FPA-h).

Glutamate AMPA = experiment: Receptor panel screen, ligand-receptor binding, FPAh 10 μM: Glutamate AMPA
Source text: as §1

[3] = tested on: Vascular endothelial growth factor; experiment: Receptor panel screen, ligand-receptor binding, FPAh 10 μM: Vascular endothelial growth factor
Source text: as §1

Estrogen ERa = target: T2, Estrogen ERa (Homo sapiens, UniProt P03372); experiment: Receptor panel screen, ligand-receptor binding, FPAh 10 μM: Estrogen ERa
T2 sequence (P03372 1-595): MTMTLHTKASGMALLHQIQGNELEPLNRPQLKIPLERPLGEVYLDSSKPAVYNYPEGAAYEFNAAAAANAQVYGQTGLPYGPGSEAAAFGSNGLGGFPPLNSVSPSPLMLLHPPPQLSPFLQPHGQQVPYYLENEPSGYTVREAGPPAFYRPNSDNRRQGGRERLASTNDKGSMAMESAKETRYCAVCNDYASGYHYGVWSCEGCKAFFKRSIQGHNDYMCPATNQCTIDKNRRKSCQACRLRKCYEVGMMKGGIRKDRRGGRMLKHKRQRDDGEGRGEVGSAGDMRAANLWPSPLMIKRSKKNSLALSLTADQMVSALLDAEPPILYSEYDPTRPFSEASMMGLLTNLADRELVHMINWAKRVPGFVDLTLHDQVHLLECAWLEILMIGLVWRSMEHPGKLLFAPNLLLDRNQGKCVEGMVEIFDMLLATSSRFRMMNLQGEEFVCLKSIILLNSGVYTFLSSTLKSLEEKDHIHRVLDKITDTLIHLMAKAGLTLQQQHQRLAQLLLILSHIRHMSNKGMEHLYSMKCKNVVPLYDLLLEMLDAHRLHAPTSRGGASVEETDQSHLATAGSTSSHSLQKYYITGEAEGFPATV
Source text: as §1

Potassium Channel [Ka] = experiment: Receptor panel screen, ligand-receptor binding, FPAh 10 μM: Potassium Channel [Ka]
Source text: as §1

[4] = target: T3, Thyrotropin Releasing Hormone (Homo sapiens, UniProt P34981); experiment: Receptor panel screen, ligand-receptor binding, FPAh 10 μM: Thyrotropin Releasing Hormone
T3 sequence (P34981 1-398): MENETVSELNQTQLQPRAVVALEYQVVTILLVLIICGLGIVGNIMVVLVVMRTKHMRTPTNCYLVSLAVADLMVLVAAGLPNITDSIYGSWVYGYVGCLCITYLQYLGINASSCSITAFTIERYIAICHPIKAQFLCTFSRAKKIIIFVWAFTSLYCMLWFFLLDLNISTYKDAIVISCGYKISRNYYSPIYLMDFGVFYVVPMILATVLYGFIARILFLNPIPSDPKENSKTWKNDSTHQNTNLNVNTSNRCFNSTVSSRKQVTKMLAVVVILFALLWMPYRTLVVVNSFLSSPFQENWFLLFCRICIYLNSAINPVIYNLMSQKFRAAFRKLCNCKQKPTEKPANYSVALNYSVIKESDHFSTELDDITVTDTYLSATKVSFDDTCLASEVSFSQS
Source text: as §1

Cholecystokinin = experiment: Receptor panel screen, ligand-receptor binding, FPAh 10 μM: Cholecystokinin
Source text: as §1

Serotonin 5-HT 2a = Serotonin 5-HT 2a (Homo sapiens, UniProt P28223); experiment: Receptor panel screen, ligand-receptor binding, FPAh 10 μM: Serotonin 5-HT 2a
Chain of Serotonin 5-HT 2a (P28223 whole entry): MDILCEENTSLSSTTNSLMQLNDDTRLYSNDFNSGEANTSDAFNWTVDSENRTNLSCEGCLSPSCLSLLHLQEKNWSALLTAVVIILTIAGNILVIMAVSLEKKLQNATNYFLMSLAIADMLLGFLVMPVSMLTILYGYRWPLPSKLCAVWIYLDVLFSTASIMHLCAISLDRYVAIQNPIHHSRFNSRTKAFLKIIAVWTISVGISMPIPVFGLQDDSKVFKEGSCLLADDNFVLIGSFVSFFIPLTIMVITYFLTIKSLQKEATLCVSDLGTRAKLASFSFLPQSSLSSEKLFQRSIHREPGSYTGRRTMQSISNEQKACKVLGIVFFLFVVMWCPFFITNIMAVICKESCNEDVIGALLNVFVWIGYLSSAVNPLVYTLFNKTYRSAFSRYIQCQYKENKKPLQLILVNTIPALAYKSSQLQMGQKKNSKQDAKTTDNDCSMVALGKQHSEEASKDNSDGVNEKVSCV
Source text: as §1

Bradykinin B1 = target: T4, Bradykinin B1 (Homo sapiens, UniProt P46663); experiment: Receptor panel screen, ligand-receptor binding, FPAh 10 μM: Bradykinin B1
T4 sequence (P46663 1-353): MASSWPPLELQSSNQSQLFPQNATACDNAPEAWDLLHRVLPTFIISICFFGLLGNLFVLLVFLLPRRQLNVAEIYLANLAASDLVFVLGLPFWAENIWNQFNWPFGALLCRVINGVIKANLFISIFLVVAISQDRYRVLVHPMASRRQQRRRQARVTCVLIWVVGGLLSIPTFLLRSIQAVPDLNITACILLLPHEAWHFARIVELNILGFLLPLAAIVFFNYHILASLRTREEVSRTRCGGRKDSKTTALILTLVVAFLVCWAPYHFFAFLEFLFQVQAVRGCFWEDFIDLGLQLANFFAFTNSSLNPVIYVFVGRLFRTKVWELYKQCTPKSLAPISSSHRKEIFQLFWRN
Source text: as §1

Arg-Pro-Pro-Gly-Thi-Ser-DPhe-Thi-Arg (RPPG[2Thi]S[dF][2Thi]R) [[Thi5,8,DPhe7] Bradykinin]
Activity/inhibition ATII binding assay [1]: 53%

DArg-Arg-Pro-Hyp-Gly-Thi-Ser-Dlgl Oic-Arg (XRPXGXSXXR; D-residues; non-natural residues) [B9340]
Activity/inhibition ATII binding assay [1]: 35%

VP062 (PPGFSPFR)
% Inhibition ATII receptor [1]: −13%

VP061 (PPGFSP)
% Inhibition ATII receptor [1]: −6%

VP057 (RPP)
% Inhibition ATII receptor [1]: −2%

VP064 (XRPXGXSXXR; D-residues; non-natural residues)
% Inhibition ATII receptor [1]: 70%

PPGFSP [Bradykinin (2-7)]
Activity/inhibition ATII binding assay [1]: −6%

N-Adamantaneacetyl-DArg-Arg-Pro-Hyp-Gly-Thi-Ser-DPhe-Thi-Arg
Activity/inhibition ATII binding assay [1]: 61%

VP058 (RPPGF)
% Inhibition ATII receptor [1]: 1%

ADSGE GDFLAEGGGVR (ADSGEGDFLAEGGGVR) [FPA-h, synthesized human Fibrinopeptide-A]
Inhibited [2]: 33% | Stimulated (Glutamate AMPA): 30% | Stimulated [3]: 22% | Inhibited (Estrogen ERa): 33% | Inhibited (Potassium Channel [Ka]): 25% | Inhibited [4]: 23% | Inhibited (Cholecystokinin): 33% | Stimulated (Serotonin 5-HT 2a): 21% | Inhibited (Bradykinin B1): 24%

Arg-Pro-Pro (RPP) [Bradykinin (1-3)]
Activity/inhibition ATII binding assay [1]: −2%

N=C(N)NCCC[C@H](NC(=O)[C@H](Cc1cccs1)NC(=O)[C@@H](Cc1ccccc1)NC(=O)[C@H](CO)NC(=O)[C@H](Cc1cccs1)NC(=O)CNC(=O)[C@@H]1CCCN1C(=O)[C@@H]1CCCN1C(=O)[C@@H](N)CCCNC(=N)N)C(=O)O [VP045] (H-RPPG[2Thi]S[dF][2Thi]R-OH)
inhibition at 10 µM [1]: 53%

Arg-Pro-Pro-Gly-Phe-Ser-DPhe-Phe-Arg (RPPGFS[dF]FR) [DPhe7] Bradykinin]
Activity/inhibition ATII binding assay [1]: 60 9%

VP042 (XRPXGXSXXR; D-residues; non-natural residues)
% Inhibition ATII receptor [1]: 29%

PPGFSPFR [Bradykinin (2-9)]
Activity/inhibition ATII binding assay [1]: −13%

CC[C@H](C)[C@H](NC(=O)[C@@H]1CCCN1C(=O)[C@H](Cc1c[nH]cn1)NC(=O)[C@@H](NC(=O)[C@H](Cc1ccc(O)cc1)NC(=O)[C@@H](NC(=O)[C@H](CCCNC(=N)N)NC(=O)CNC)C(C)C)[C@@H](C)CC)C(=O)O [[Sar^1, Ile^8] Angiotensin II]
nH [1]: 1.0

VP059 (RPPGFS)
% Inhibition ATII receptor [1]: −12%

N=C(N)NCCC[C@H](NC(=O)[C@H](Cc1cccs1)NC(=O)[C@@H](Cc1ccccc1)NC(=O)[C@H](CO)NC(=O)[C@H](Cc1cccs1)NC(=O)CNC(=O)[C@@H]1C[C@@H](O)CN1C(=O)[C@@H]1CCCN1C(=O)[C@H](CCCNC(=N)N)NC(=O)[C@@H](CCCNC(=N)N)NC(=O)CC12CC3CC(CC(C3)C1)C2)C(=O)O [VP046] ({Acetyl(1-adamantyl)}-[dR]RP[Hyp]G[2Thi]S[dF][2Thi]R-OH)
inhibition at 10 µM [1]: 61%

(DArg-Arg-Pro-Hyp-Gly-Thi-Ser-DTic-Oic-Arg (XRPXGXSXXR; D-residues; non-natural residues) [Hoe 140, reference compound]
Activity/inhibition ATII binding assay [1]: 29%

CC[C@H](C)[C@H](NC(=O)[C@@H]1CCCN1C(=O)[C@H](Cc1c[nH]cn1)NC(=O)[C@H](CCCCNC(=O)[C@H](CCCNC(=N)N)NC(=O)OCc1ccccc1)NC(=O)[C@H](Cc1ccc(O)cc1)NC(=O)c1cccnc1)C(=O)O [CGP-42112A, nicotinic acid-Tyr-(N-benzoylcarbonyl-Arg)Lys-His-Pro-Ile-OH, reference compound] (Nicotinoyl-YK([Arg-Cbz])HPI-OH)
nH [1]: 1.1

VP052 (RPPGFSPYR)
% Inhibition ATII receptor [1]: −1%

Arg-Pro-Pro-Gly-Phe (RPPGF) [Bradykinin (1-5)]
Activity/inhibition ATII binding assay [1]: 1%

CNCC(=O)N[C@@H](CCCN=C(N)N)C(=O)N[C@H](C(=O)N[C@@H](Cc1ccc(O)cc1)C(=O)N[C@H](C(=O)N[C@@H](Cc1cnc[nH]1)C(=O)N1CCC[C@H]1C(=O)N[C@@H](C)C(=O)O)C(C)C)C(C)C [Saralasin]
nH [1]: 0.9

RPPGFS [Bradykinin (1-6)]
Activity/inhibition ATII binding assay [1]: −12%

DArg-Arg-Pro-Hyp-Gly-Igl-Ser-Dlgl-Oic-Arg (XRPXGXSXXR; D-residues; non-natural residues) [B9430]
Activity/inhibition ATII binding assay [1]: 70%

VP043 (RPPGFS[dF]FR)
% Inhibition ATII receptor [1]: 9%

VP063 (XRPXGXSXXR; D-residues; non-natural residues)
% Inhibition ATII receptor [1]: 35%

NC(N)=NCCC[C@H](NC(=O)[C@H](Cc1ccccc1)NC(=O)[C@@H]1CCCN1C(=O)[C@H](CO)NC(=O)[C@H](Cc1ccccc1)NC(=O)CNC(=O)[C@@H]1CCCN1C(=O)[C@@H]1CCCN1C(=O)[C@@H](N)CCCN=C(N)N)C(=O)O [Bradykinin]
Activity/inhibition ATII binding assay ([1]; 10 µM): 12%

N-Admantanecarbonyl-DArg0-HyP3, Thi5,8, DPhe7] Bradykinin
Activity/inhibition ATII binding assay [1]: 63%
